Assay [1] deals with T1, recombinant his-tag human LAG3-ECD protein (human, UniProt P18627 23-450).
T1 construct: extracellular domain; not shown: his tag
T1 sequence (looked up): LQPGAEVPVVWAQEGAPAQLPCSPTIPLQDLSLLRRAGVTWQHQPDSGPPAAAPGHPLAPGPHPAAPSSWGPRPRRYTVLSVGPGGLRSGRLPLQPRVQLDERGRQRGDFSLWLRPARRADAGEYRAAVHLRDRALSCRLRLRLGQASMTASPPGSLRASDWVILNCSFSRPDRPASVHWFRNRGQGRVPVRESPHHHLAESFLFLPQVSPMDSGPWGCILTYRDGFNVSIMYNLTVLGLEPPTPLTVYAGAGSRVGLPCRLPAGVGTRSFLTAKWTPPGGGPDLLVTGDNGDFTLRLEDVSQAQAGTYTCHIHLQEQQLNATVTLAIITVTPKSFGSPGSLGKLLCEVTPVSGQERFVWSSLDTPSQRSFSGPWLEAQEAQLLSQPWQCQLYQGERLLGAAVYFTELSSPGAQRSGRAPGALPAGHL
As to the kind of experiment: SPR Biacore T200, antibody captured by anti-human Fc, LAG3-ECD-his injected. As to the method: The binding of the S20, S24, S27, S31, S87, S119, S120, S128, S136, S161 and T99 antibodies to recombinant his-tag human LAG3-ECD protein was examined by Biacore T200 using a capture method. Anti-LAG3 antibodies were captured using anti-human Fc antibody. The anti-human Fc antibody was coated on chip. Serial concentrations of his-tag human LAG3-ECD protein (0-4 nM) were injected over capture antibodies at the flow rate of 30 μl/min. The dissociation phase was 900 s or 550 s. The Biacore results for the anti-LAG3 antibodies have shown that these anti-LAG3 antibodies are high affinity binder to human LAG3.

Assay [2] has as its target T2, recombinant human LAG-3-ECD-human IgG1 fusion protein (human, UniProt P18627 23-450, biotin-labeled in the MHC class II blocking assays).
T2 construct: extracellular domain; also called LAG-3-huFc; LAG-3-ECD-huFc; not shown: human IgG1 Fc
T2 sequence (looked up): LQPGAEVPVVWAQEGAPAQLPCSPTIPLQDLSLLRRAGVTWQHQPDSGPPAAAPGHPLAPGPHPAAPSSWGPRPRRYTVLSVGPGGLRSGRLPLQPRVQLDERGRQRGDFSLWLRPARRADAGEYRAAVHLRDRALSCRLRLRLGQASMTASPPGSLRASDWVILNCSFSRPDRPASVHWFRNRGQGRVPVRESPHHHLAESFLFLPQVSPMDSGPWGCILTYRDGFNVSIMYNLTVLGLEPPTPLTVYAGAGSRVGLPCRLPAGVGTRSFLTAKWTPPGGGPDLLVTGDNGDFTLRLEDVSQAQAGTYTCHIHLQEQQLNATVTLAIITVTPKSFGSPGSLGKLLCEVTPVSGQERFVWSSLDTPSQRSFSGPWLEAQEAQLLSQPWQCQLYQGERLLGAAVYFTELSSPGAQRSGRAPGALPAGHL
Nature of the assay: ELISA on coated human LAG3 ECD-Fc; EC50 table has no unit, x axis Ab(nM). As to the method: (§1) To evaluate the capability of the anti-LAG-3 antibodies to bind to human, rat, and mouse LAG3 the antibodies identified in Example 2.1 were evaluated for their binding property through ELISA. The human, rat and mouse LAG3 ECD-Fc protein were coated to ELISA plate at 1 μg/ml with 100 μl/well. Antibodies from Example 1 were serially diluted with ELISA diluent buffer. […] The resulting plates were washed and then labeled with anti-human IgG(Fab)-HRP antibody. The S31 can only bind to human LAG3. The S27 and T99 can bind to human LAG3 and rat/mouse LAG3 with lower potency. The S119 antibody can bind to human, rat and mouse LAG3 at high potency (FIGS. 22A-22D).
(In general: ELISA stands for enzyme-linked immunosorbent assay.)

The target in assay [3] is T3, rat LAG3 ECD-Fc protein (rat, UniProt Q5BK54 24-442).
T3 construct: extracellular domain; not shown: Fc part
T3 sequence (looked up): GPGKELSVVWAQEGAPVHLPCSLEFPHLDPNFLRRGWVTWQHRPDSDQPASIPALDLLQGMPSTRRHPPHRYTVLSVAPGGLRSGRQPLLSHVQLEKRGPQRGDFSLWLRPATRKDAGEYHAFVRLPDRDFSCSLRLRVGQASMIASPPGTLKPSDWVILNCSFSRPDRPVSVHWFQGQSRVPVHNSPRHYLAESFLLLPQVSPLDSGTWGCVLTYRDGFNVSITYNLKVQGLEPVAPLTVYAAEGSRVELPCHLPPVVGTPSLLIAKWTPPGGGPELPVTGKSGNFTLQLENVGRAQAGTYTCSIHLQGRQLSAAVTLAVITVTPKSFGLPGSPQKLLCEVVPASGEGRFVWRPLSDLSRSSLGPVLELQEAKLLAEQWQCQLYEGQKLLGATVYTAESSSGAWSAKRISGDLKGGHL
Nature of the assay: ELISA on coated rat LAG3 ECD-Fc; EC50 table has no unit, x axis Ab(nM); fit value of a flat curve. The method, then:
as §1

Assay [4] deals with T4, mouse LAG3 ECD-Fc protein (mouse, UniProt Q61790 24-442).
T4 construct: extracellular domain; not shown: Fc part
T4 sequence (looked up): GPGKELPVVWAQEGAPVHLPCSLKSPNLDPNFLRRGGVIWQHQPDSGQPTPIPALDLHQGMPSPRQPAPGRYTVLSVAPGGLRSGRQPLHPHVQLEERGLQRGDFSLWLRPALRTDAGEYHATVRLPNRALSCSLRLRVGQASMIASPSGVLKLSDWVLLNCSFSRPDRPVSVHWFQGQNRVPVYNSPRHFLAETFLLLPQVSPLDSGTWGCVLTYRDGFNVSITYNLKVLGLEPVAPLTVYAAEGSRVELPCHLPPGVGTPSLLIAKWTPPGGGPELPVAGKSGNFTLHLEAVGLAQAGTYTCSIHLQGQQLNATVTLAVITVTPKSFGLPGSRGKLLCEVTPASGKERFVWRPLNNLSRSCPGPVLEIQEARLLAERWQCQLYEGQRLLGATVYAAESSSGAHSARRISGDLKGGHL
Nature of the assay: ELISA on coated mouse LAG3 ECD-Fc; EC50 table has no unit, x axis Ab(nM); fit value of a flat curve. The method, then:
as §1

The target in assay [5] is T2, recombinant human LAG-3-ECD-human IgG1 …. As to the kind of experiment: flow cytometry; blocking of biotin-LAG-3-ECD-huFc binding to MHC class II on Raji cells; the curve ends at about 20 nM without a lower plateau. As to the method: (§2) To evaluate the ability of anti-LAG-3 antibodies to block the binding of sLAG-3 to MHC class II receptor, an in vitro binding assay was designed using biotin-labeled LAG-3-ECD-huFc fusion proteins and Raji cells expressing MHC class II receptor. Antibodies from Example 1 were serially diluted from 20 μg/mL with FACS buffer and pre-incubated with 6 μg/mL of biotin-LAG-3-ECD-huFcc for 30 min at room temperature. The antibody mixture was then added to FcR blocked Raji cells and incubated for 30 min on ice. Cells were then washed with FACS buffer and subsequently stained with streptavidin PE for 30 min on ice and subsequently washed once with FACS buffer. Labeled cells were evaluated for fluorescence intensity by flow cytometry in a BD FACSCalibur™.
(Flow cytometry measures light scatter and fluorescence of single cells or particles in a stream.)

The target in assay [6] is T3, rat LAG3 ECD-Fc protein. As to the kind of experiment: ELISA on coated rat LAG3 ECD-Fc; EC50 table has no unit, x axis Ab(nM). As to the method:
as §1

Assay [7] concerns the target T4, mouse LAG3 ECD-Fc protein. Nature of the assay: ELISA on coated mouse LAG3 ECD-Fc; EC50 table has no unit, x axis Ab(nM). As to the method: as §1
The target of assay [8] is T2, recombinant human LAG-3-ECD-human IgG1 …. As to the kind of experiment: flow cytometry; blocking of biotin-LAG-3-ECD-huFc binding to MHC class II on Raji cells. As to the method: as §2
The target is the same in assay [9]. As to the kind of experiment: ELISA on coated D1-D4 huFc; EC50 table has no unit, x axis Ab(nM). The method, then:
Briefly, D1-D4 huFc or ΔD1-D2 huFc was coated at 0.5 μg/ml overnight and then blocked by 5% BSA in PBS. The serially diluted antibodies (starting from 1 μg/ml and 1:3 serial dilution for 10 doses) were incubated with the coated antigen for 1 hr at room temperature. The resulting plates were washed with PBS/T and incubated with goat anti-mouse IgG-HRP for 1 h at room temperature. The plates were developed with TMB substrate and analyzed by spectrophotometer at OD 450-630 nm.

Assay [10] shares this target. As to the kind of experiment: flow cytometry; blocking of biotin-LAG-3-ECD-huFc binding to MHC class II on Raji cells. The method, then: To evaluate the ability of anti-LAG-3 antibodies to block the binding of sLAG-3 to MHC class II receptor, an in vitro binding assay was designed using biotin-labeled LAG-3-ECD-huFc fusion proteins and Raji cells expressing MHC class II receptor. […] The antibody mixture was then added to FcR blocked Raji cells and incubated for 30 min on ice. Cells were then washed with FACS buffer and subsequently stained with streptavidin PE for 30 min on ice and subsequently washed once with FACS buffer. Labeled cells were evaluated for fluorescence intensity by flow cytometry in a BD FACSCalibur™.
This is another data set of the same source.

B1: NLAG3-HDB169-S31 (antibody, human IgG1, V domains shown)
VH: QVQLVQSGAEVKKPGSSVKVSCKASGGTFSSYAISWVRQAPGQGLEWMGGIIPIFGTANYAQKFQGRVTITADESTSTAYMELSSLRSEDTAVYYCARDAGPVGYYGMDVWGQGTTVTVSS
VL: AIRMTQSPSTLSASVGDRVTITCRASQGIAGWLAWYQQKPGKAPKLLIYAASSLQSGVPSRFSGSASGTDFTLTISNLQPEDFATYYCQQAKSFPLTFGGGTKVEIKR
notes: Short label tied by its unique suffix
Take B1: in assay [1], the Kd came to 0.03 nM, the koff is 6.25e-05 s⁻¹ and the kon came out at 2.08e+06 M⁻¹ s⁻¹. Besides, the EC50 in [2] turned out to be 0.279 nM. Besides, the EC50 with rat LAG3 ECD-Fc protein [3] is about 271 µM. The EC50 in [4] was determined as 119 nM. Besides, the IC50 in assay [5] came out at 82.6 nM.

B2: NLAG3-HDB169-S119 (antibody, human IgG1, V domains shown)
VH: QVQLVQSGAEVKKPGSSVKVSCKASGGTFSSYAISWVRQAPGQGLEWMGGIIPIFGTANYAQKFQGRVTITADESTSTAYMELSSLRSEDTAVYYCAASTLRVPNPPYWGQGTLVTVSS
VL: EIVLTQSPGTLSLSPGERATLSCRASQSVSSYLAWYQQKPGQAPRLLIYGISSRATGIPDRFSGSGSGTDFTLTISSLQPEDFATYYCQQANNFPLTFGGGTKLEIKR
notes: as for B1
Take B2: in assay [1], the Kd worked out at 0.00687 nM, the koff came out at 0.000149 s⁻¹ and the kon came out at 2.17e+07 M⁻¹ s⁻¹. In the assay with rat LAG3 ECD-Fc protein [6], this molecule showed an EC50 of 0.0387 nM. Also, the EC50 in assay [2] worked out at 0.0321 nM. This molecule had an EC50 in [7] of 0.0724 nM. In addition, the IC50 in assay [8] was 9.29 nM.

B3: 147H mouse monoclonal antibody (antibody, V domains shown)
VH: QVQLQQSGSELVRPGTSVKISCKASGYTFTNYWLGWIKQRPGHGLEWIGDIYPGGDYINYNEKFKGKATLSADTSSSTAYMQLSSLTSEDSAVYFCARPNLPGDYWGQGTSVTVSS
VL: DIVMTQAAFSNPVTLGTSASISCRSSKSLLHSNGITYLYWYLQKPGQSPQLLIYQVSNLASGVPGRFSGSGSGTDFTLRISRVEAEDVGVYYCAQNLELPWTFGGGTKLEIK
notes: Mouse hybridoma antibody
As for B3, the EC50 in assay [9] came to 0.0979 nM. In addition, the concentration for half-maximal inhibition (IC50) in assay [10] amounted to 21.4 nM.

As a reminder, the Kd is a measure of binding affinity in units of concentration. Broadly, the koff is a measure of how fast the partners let go of each other. Usually kon stands for the second-order rate constant of association. In general, EC50 refers to the concentration at which the effect is half-maximal. The IC50 is the point on the concentration scale where inhibition reaches its midpoint.

The record behind these values is patent publication US20220363763A1 (ABL BIO, published 2022).
